To fix the notation:
B1: Hairpin Ribozyme (parent)
chain: GUCCUCUUUCACGUGCGCGUGAAAGAGAGAAGUGAACCAGAGAAACACACGUUGUGGUAUAUUACCUGGUA

In this series the parent is B1. Nature of the series: self-cleavage, relative activity (ratio to wild type); higher = more cleavage; co-transcriptional.
Turning to CUCCUCUUUCACGUGCGCGUGAGAGAGAGAAGUGAACCAGAGAAACACACGUUGUGGUAUAUUACCUGGUA, the self-cleavage was found to be 0.132.
In the case of CUCCUCUUUCACGUGCGCGUGAAAGAGAGAAGUGAACCAGAGAAACACAGGUUGUGGUAUAUUACCUGGUA it was 0.171; in that of CUCCUCUUUCACGUGCGCGUGAAAGAGAGAAGUGUACCAGAGAAACACACGUUGUGGUAUAUUACCUGGUA, 0.254.
In the case of CUCCUCUUUCACGUGCGCGUGAAAGUGAGAAGUGAACCAGAGAAACACACGUUGUGGUAUAUUACCUGGUA it was 0.18; in that of CUCCUCUUUCACGUGCGCGUGAAAGAGAGAAGUGAACCAGAGGAACACACGUUGUGGUAUAUUACCUGGUA, 0.113; in that of CUCCUCUUUCACGUGCGCGUGAAAGAGAGAAGUGAACCAGAGAAACACACGUUGUGGUAUGUUACCUGGUA, 0.202.
Consider CUCCUCUUUCACGUGCGCGUGAAAGAGAGAAGUGAACCAGAGAAACACACGUUGUGGUAUCUUACCUGGUA, for which the self-cleavage was determined as 0.249.
For CUCCUCUUUCACGUGCGCGUGAAAGAGAGAAGUGAACCAGAGAAACACACGUUGUGGUAUUUUACCUGGUA, the self-cleavage was found to be 0.126.
In the case of CUCCUCUUUCACGUGCGCGUGAACGAGAGAAGUGAACCAGAGAAACACACGUUGUGGUAUAUUACCUGGUA, the self-cleavage worked out at 0.32.
Regarding CUCCUCUUUCAGGUGCGCGUGAAAGAGAGAAGUGAACCAGAGAAACACACGUUGUGGUAUAUUACCUGGUA, the self-cleavage was 0.188.
In the case of CUCCUCUUUCAAGUGCGCGUGAAAGAGAGAAGUGAACCAGAGAAACACACGUUGUGGUAUAUUACCUGGUA it was 0.215.
On to CUCCUCUUUCAUGUGCGCGUGAAAGAGAGAAGUGAACCAGAGAAACACACGUUGUGGUAUAUUACCUGGUA, for which the self-cleavage was found to be 0.213.
In the case of CUCCUCUUUCACGUGCGCGUGAAAGAGAGAAGUGAACCAGAGAGACACACGUUGUGGUAUAUUACCUGGUA it was 0.0352; in that of CUCCUCUUUCACGUGCGCGUGAAAGAUAGAAGUGAACCAGAGAAACACACGUUGUGGUAUAUUACCUGGUA, 0.142.
For CUCCUCUUUCACGUGCGCGUGUAAGAGAGAAGUGAACCAGAGAAACACACGUUGUGGUAUAUUACCUGGUA the value was 0.103; for CUCCUCUUUCACGUGCGCGUGAAAGAGAGCAGUGAACCAGAGAAACACACGUUGUGGUAUAUUACCUGGUA, 0.207; for CUCCUAUUUCACGUGCGCGUGAAAGAGAGAAGUGAACCAGAGAAACACACGUUGUGGUAUAUUACCUGGUA, 0.245.
Regarding CUCCUCUUUCACGUGCGCGGGAAAGAGAGAAGUGAACCAGAGAAACACACGUUGUGGUAUAUUACCUGGUA, the self-cleavage was 0.0342.
Take UUCCUCUUUCACGUGCGCGUGAUAGAGAGAAGUGAACCAGAGAAACACACGUUGUGGUAUAUUACCUGGUA: the self-cleavage was 0.11.
For CUCCUCUUUCACGUGUGCGUGAAAGAGAGAAGUGAACCAGAGAAACACACGUUGUGGUAUAUUACCUGGUA the value was 0.198.
In the case of CUCCUCUUUCACGUGCGCGUGAAAGAGUGAAGUGAACCAGAGAAACACACGUUGUGGUAUAUUACCUGGUA it was 0.247.
In the case of CCCCUCUUUCACGUGCGCGUGAAAGAGAGAAGUGAACCAGAGAAACACACGUUGUGGUAUAUUACCUGGUA it was 0.233; in that of AUCCUCUUUCACGUGCGCGUGAAAGAGAGAAGUGAACCAGAGAAACACACGUUGUGGUAUAUUACCUGGAA, 0.198.
Turning to AUCCUCUUUCACGUGCGCGUGAAAGAGAGAAGUGAACCAGAGAAACACACGUUGUGGUAUAUUACCUGGCA, the self-cleavage was found to be 0.154.
For CUCCUCUUUCACGUGCGCAUGAAAGAGAGAAGUGAACCAGAGAAACACACGUUGUGGUAUAUUACCUGGUA the value was 0.197.
In the case of CUCCUCUUUCACGUGCGCGUGAAAGAGAGAAGUGAACCAGAGAAACACACGUUGUGGUAUAUUACAUGGUA it was 0.351; in that of CUCCUCUUUCACGUGCGCGUGAAAGAGAGAAGUGAACCAGAGAAACACACGUUGUGGUAUAUUACUUGGUA, 0.12.
For CUCCUCUUUCACGUGCGCGUGAAAGAGAGAAGUGAACCAGAGAAACACACGUUGUGGUAUAUUACCAGGUA the value was 0.109.
As to CUCCUCUUUCACGUGCGCGUGAAAGAGAGAAGUGAACCAGAGAAACACACGUUGUGGUAUAUUAUCUGGUA, the self-cleavage came out at 0.188.
In the case of CUCCUCUUUCACGUGCGCGUGAAAGAGAGAAGUGAUCCAGAGAAACACACGUUGUGGUAUAUUACCUGGUA, the self-cleavage turned out to be 0.338.
In the case of CUCCCCUUUCACGUGCGCGUGAAAGAGAGAAGUGAACCAGAGAAACACACGUUGUGGUAUAUUACCUGGUA it was 0.361; in that of CUCCUCUUUCACGUGCGCGUGAAAGAGAGAAGUGAACCAGAGAAACACACGUUGUGGUAUAUUACCUGCUA, 0.303; in that of CUCCUCUUUCACGUGCGCGUGAAAGAGAGAAGUGAACCAGAGAAACAAACGUUGUGGUAUAUUACCUGGUA, 0.129.
In the case of CUUCUCUUUCACGUGCGCGUGAAAGAGAGAAGUGAACCAGAGAAACACACGUUGUGGUAUAUUACCUGGUA it was 0.18; in that of CUCCUCUUUCACGUGCGCGUGAAAGAGAGAAGUGAAACAGAGAAACACACGUUGUGGUAUAUUACCUGGUA, 0.0534.
Consider CUCCUCUUUCACGUGCGCGUGAAAGAGAGAAGUGAAGCAGAGAAACACACGUUGUGGUAUAUUACCUGGUA, for which the self-cleavage was determined as 0.0832.
For CUCCUCUUUCACGUGCGCGUGAAAGAGAGAAGUGAACCAGAGAAACACACGUUGUGGUAUAUUACCUGGAA the value was 0.208.
As for CUCCUCUUUCACGUGCGCGUGAAAGAGAGAAGUGAACCAGAGAAACACACGUUGUGGUAUAUUACCUGGCA, the self-cleavage came out at 0.155.

Source of the values: the RNAGym collection of RNA variant scans (doi:10.7554/elife.80360).
